From patent US6146878

Legend:
TyrR (Escherichia coli) = assay: cell_activity; settings: beta-galactosidase reporter, M9 + 2 mM L-tyrosine, 37 C; 29.1 without tyrosine; indirect evidence of binding
[1] = target: T1, TyrR (tyrosine repressor) (Erwinia herbicola) (UniProt Q9ZIB7); assay: cell_activity; settings: beta-galactosidase reporter, M9 + 2 mM L-tyrosine, 37 C; 35.5 without tyrosine; indirect evidence of binding
T1 sequence: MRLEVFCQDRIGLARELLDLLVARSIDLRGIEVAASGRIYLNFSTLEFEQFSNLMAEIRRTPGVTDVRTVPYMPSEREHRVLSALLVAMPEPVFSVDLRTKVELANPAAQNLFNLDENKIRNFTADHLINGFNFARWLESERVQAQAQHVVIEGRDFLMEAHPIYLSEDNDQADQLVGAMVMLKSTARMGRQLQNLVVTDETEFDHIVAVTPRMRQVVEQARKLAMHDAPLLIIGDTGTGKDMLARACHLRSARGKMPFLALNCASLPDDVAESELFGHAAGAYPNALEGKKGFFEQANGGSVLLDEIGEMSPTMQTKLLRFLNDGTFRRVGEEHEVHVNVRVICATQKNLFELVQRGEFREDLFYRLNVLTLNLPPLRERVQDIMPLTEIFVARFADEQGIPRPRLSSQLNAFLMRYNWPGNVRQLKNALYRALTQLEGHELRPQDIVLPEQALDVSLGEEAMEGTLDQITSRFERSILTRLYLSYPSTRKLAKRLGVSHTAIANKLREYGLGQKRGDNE

## tpl promoter/enhancer region (about 480 bp, tpl'-'lac fusion)
TyrR (Escherichia coli)
  activity: 324 Miller units
[1]
  activity: 656 Miller units
